Entries after “also recorded” stand apart in the source; their conditions may differ.
What was measured:
[1] = tested on: primary human intestinal fibroblasts from CD patients; experiment: Elafin exposure of primary human intestinal fibroblasts from CD patients (Example 1); assay type: cell-based; details: elafin 24 hours
Description: FIG. 6. Elafin promotes fibrogenesis in human colonic fibroblasts. (A) The human colonic CCD-18Co fibroblasts were incubated with 100 μl/ml (10%) of human sera from normal, stricturing CD, and non-stricturing CD patients in serum-free DMEM for 24 hours. (B) The human colonic CCD-18Co fibroblasts were incubated with 100 μl/ml (10%) of human sera from high elafin CD group (>8000 pg/ml) and low elafin CD group (<8000 pg/ml) in serum-free DMEM for 24 hours. (C) Serum-starved CCD-18Co fibroblasts were pretreated with 15 μg/ml of anti-elafin neutralizing antibody or control antibody for 30 minutes, followed by exposure to (100 μl/ml) human sera from normal and stricturing CD patients for 24 hours. Six serum donors per group. […] Pro-COL1A1 protein levels in cell lysates were determined by ELISA. (E) Serum-starved primary human intestinal fibroblasts from CD patients were exposed to elafin for 24 hours. mRNA expression was determined by real-time RT-PCR. […]
Total RNA was isolated by an RNeasy kit (#74104, Qiagen) and reverse transcribed into cDNA by a high-capacity cDNA RT kit (#4368813, ThermoFisher). Quantitative PCR reactions were run with Fast Universal PCR master mix (#4352042, ThermoFisher) in a Bio-Rad CFX384 system. […] Relative mRNA quantification was performed by comparing test groups and normal control group, after normalization with endogenous control gene human 18S (Hs99999901_s1).

CD patient-derived PBMCs = experiment: Cytokine multiplex assay in serum exosome-preconditioned CD PBMCs; assay type: cell-based, human; details: CDSE-preconditioned CD PBMCs; 1 μg/ml elafin 6 hours
Description: FIG. 30. Cytokine levels in mouse and human sera and CD-PBMCs. (A) Mouse serum cytokine levels were measured by a 23-plex multiplex assay (#M60009RDPD, Bio-Rad). n=5 mice per group. (B) Human serum cytokines were measured by a 27-plex multiplex assay (#M500KCAFOY, Bio-rad). 12 normal, 23 UC, and 43 CD patients. (C) CD patient-derived PBMCs were preconditioned with stricturing CD patient (CDS) or non-stricturing CD patient (CDNS)-derived serum exosomes for two hours, followed by exposure to either 0.1% TFA or 1 μg/ml elafin for 6 hours. The cell supernatants were collected for a 13-plex cytokine multiplex assay (HSTCMAG28SPMX13, Millipore Sigma). (D) A comparison of cytokine levels in mouse sera, human sera, and conditioned media of CDS and CDNS serum exosome-conditioned CD-PBMCs. ns=no significant difference. ND=below detection range. N/A=unavailable. Mo=monocytes. MO=macrophages, DC=dendritic cells.
CD PBMCs (#70052, […] Technologies) were cultured in RPMI1640 media containing 10% exosome-depleted fetal bovine serum (A2720803, ThermoFisher) and 1% penicillin-streptomycin. Some groups were conditioned with 100 μg/ml of human serum exosomes from either CDSE or non-stricturing CD (CDNSE) patients to mimic the CD chemical environment for two hours, followed by addition with either 0.1% TFA or 1 μg/ml elafin. […]

[2] = Basic pharmacokinetics of subcutaneous elafin in RD-treated male mice; assay type: in vivo; details: natural elafin 1 mg/kg subcutaneous
Description: FIG. 36. Subcutaneous and oral administration of modified elafin inhibited hyperphagia and hyperglycemia in HFD-treated male mice. (A) Elafin (1 mg/kg) was injected into RD-treated male mice subcutaneously. Tail-vein blood samples were collected for elafin ELISA. This mouse experiment was intended for the determination of basic pharmacokinetics of elafin, but not the determination of physiology of elafin. (B) HFD-treated mice were treated with either oral gavage of Elafin-Eudragit formulation (10 mg/kg) daily or subcutaneous injection of PEG-elafin (3.25 mg/kg) every 48 h for 14 days. Serum elafin levels. (C) Serum leptin levels. (D) Serum IFNγ and IL-1β levels. (E) Daily food consumption. (F) Change in fat mass. (G) Change in body weight over 14 days. (H) Fasting blood glucose levels. Each group consists of 8 mice.

[3] = cited from earlier work

Substance: Elafin: small (6 kDa) human elastase-specific protease inhibitor and antimicrobial peptide; active form SEQ ID NO: 2 (AQEPVKGPVSTKPGSCPIILIRCAMLNPPNRCLKDTDCPGIKKCCEGSCGMACFVPQ; listed as Homo sapiens)
- collagen (COL3A1 and COL1A2), ACTA2 and TGF-b1 mRNA expression [1]: increased
- T-cell cytokine secretion (CD patient-derived PBMCs): did not affect
- half-life in circulation [2]: 3 h
- increase of plasma concentration ([3]; 200 mg/person intravenous): > 3000 fold
- adverse effects / tolerability ([3]; 200 mg/person): does not cause any adverse effects; also recorded: well tolerated
